Source: ChEMBL document CHEMBL1151808, “Substrate promiscuity of the cyclic dipeptide prenyltransferases from Aspergillus fumigatus ( section sign)” (J Nat Prod, 2009)

Tests used:
[1] = substrate: N[C@@H](Cc1c[nH]c2ccccc12)C(=O)O; assay: (§1) Activity at Aspergillus fumigatus FtmPT1 by HPLC analysis
[2] = substrate: O=C1N[C@@H](Cc2c[nH]c3ccccc23)C(=O)N2CCC[C@@H]12; assay: as §1

B1: Tryprostatin B synthase ftmPT1 (Aspergillus fumigatus), Q4WAW7 (protein)
chain: MPPAPPDQKPCHQLQPAPYRALSESILFGSVDEERWWHSTAPILSRLLISSNYDVDVQYKYLSLYRHLVLPALGPYPQRDPETGIIATQWRSGMVLTGLPIEFSNNVARALIRIGVDPVTADSGTAQDPFNTTRPKVYLETAARLLPGVDLTRFYEFETELVITKAEEAVLQANPDLFRSPWKSQILTAMDLQKSGTVLVKAYFYPQPKSAVTGRSTEDLLVNAIRKVDREGRFETQLANLQRYIERRRRGLHVPGVTADKPPATAADKAFDACSFFPHFLSTDLVEPGKSRVKFYASERHVNLQMVEDIWTFGGLRRDPDALRGLELLRHFWADIQMREGYYTMPRGFCELGKSSAGFEAPMMFHFHLDGSQSPFPDPQMYVCVFGMNSRKLVEGLTTFYRRVGWEEMASHYQGNFLANYPDEDFEKAAHLCAYVSFAYKNGGAYVTLYNHSFNPVGDVSFPN
[1]
  Km: 820 µM
  kcat: 0.12 s⁻¹
[2]
  Km: 55 µM
  kcat: 5.57 s⁻¹
